Several values for one entry are separate records, joined by “and”; a condition that tells them apart may be missing. Identical values can stand only once.
Tests used:
[1] = target: GST-BAI-1 Associated Protein PDZ domain 2 (Mus musculus (Mouse)), Q6RHR9; assay: G' assay; note: key of the grades not given here
[2] = target: GST-BAI-1 Associated Protein PDZ domain 6 (Homo sapiens (Human)), Q96QZ7; assay: G' assay; note: key of the grades not given here
[3] = target: T1, GST-KIAA0380 PDZ domain 1 (Homo sapiens (Human)), O15085; assay: G' assay; note: key of the grades not given here
T1 chain: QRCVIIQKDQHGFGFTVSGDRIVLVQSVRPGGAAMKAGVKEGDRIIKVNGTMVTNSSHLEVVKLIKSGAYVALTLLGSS

[4] = target: T2, GST-KIAA0807(S) PDZ domain 1 (Homo sapiens (Human)), Q6P0Q8; assay: G' assay; note: key of the grades not given here
T2 chain: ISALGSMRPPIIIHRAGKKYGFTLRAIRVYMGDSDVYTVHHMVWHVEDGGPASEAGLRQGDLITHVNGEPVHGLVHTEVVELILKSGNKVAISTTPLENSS

[5] = target: GST-KIAA1634 PDZ domain 1 (Homo sapiens (Human)), Q5TCQ9; assay: G' assay; note: key of the grades not given here
[6] = target: GST-KIAA1634 PDZ domain 5 (Homo sapiens (Human)), Q5TCQ9; assay: G' assay; note: key of the grades not given here
[7] = target: T3, GST-MUPP1 PDZ domain 13 (Homo sapiens (Human)), O75970; assay: G' assay; note: key of the grades not given here
T3 chain: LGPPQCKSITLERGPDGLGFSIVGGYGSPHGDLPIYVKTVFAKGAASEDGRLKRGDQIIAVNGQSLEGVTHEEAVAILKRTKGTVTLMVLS

[8] = target: T4, GST-PDZK1 PDZ domains 2, 3, 4, Q5T2W1; assay: G' assay; note: key of the grades not given here
T4 chain: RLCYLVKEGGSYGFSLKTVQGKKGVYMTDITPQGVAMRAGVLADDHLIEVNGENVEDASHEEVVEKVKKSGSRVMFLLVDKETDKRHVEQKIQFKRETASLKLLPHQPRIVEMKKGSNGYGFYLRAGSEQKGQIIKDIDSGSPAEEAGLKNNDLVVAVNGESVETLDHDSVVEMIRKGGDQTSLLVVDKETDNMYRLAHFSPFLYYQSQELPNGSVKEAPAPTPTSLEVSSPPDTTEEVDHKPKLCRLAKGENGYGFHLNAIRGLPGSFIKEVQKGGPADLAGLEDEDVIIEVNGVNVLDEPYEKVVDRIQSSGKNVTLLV

[9] = target: GST-PSD95 PDZ domains 1, 2, 3 (Homo sapiens), P78352; assay: G' assay; note: key of the grades not given here
[10] = target: T5, GST-Syntrophin 1 alpha PDZ domain 1 (Homo sapiens (Human)), Q13424; assay: G' assay; note: key of the grades not given here
T5 chain: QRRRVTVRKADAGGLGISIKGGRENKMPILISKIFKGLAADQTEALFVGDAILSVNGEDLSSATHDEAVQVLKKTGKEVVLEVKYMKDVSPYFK

[11] = target: T6, GST-TIP1 PDZ domain 1 (Table 9 insert) (Homo sapiens (Human)), O14907; assay: G' assay; note: key of the grades not given here
T6 chain: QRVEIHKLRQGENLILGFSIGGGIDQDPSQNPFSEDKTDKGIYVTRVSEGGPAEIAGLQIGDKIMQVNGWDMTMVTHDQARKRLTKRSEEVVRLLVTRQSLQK

[12] = target: T7, GST-novel PDZ gene PDZ domain 2 (Homo sapiens (Human)), Q9H5P4; assay: G' assay; note: key of the grades not given here
T7 chain: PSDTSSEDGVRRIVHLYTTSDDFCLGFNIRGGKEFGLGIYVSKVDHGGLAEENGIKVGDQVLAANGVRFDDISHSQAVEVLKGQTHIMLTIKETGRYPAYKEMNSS

[13] = target: T8, GST-AIPC PDZ domain 1 (Homo sapiens (Human)), O15018; assay: G' assay; note: key of the grades not given here
T8 chain: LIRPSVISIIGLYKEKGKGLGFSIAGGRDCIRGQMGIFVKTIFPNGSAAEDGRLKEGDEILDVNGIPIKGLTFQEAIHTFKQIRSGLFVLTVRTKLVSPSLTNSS

[14] = target: GST-BAI-1 Associated Protein PDZ domain 5 (Homo sapiens (Human)), Q96QZ7; assay: G' assay; note: key of the grades not given here
[15] = target: T9, GST-DLG1 PDZ domain 2 (Homo sapiens), Q12959; assay: G' assay; note: key of the grades not given here
T9 chain: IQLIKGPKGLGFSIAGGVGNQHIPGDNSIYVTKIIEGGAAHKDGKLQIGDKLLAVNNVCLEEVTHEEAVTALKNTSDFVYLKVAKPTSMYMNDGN

[16] = target: GST-DLG1 PDZ domains 1, 2 (Homo sapiens), Q12959; assay: G' assay; note: key of the grades not given here
[17] = target: T10, GST-DLG2 PDZ domain 2 (Homo sapiens (Human)), Q15700; assay: G' assay; note: key of the grades not given here
T10 chain: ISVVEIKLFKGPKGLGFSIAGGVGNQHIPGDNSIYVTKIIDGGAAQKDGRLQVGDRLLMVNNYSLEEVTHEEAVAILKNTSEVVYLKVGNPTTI

[18] = target: T11, GST-FLJ 10324 PDZ domain 1 [GST: P08515]; assay: G' assay; note: key of the grades not given here
T11 chain: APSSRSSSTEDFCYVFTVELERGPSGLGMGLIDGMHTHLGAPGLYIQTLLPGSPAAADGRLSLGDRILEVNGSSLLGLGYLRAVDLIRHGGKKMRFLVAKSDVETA

[19] = target: T12, GST-KIAA1634 PDZ domain 2 (Homo sapiens (Human)), Q5TCQ9; assay: G' assay; note: key of the grades not given here
T12 chain: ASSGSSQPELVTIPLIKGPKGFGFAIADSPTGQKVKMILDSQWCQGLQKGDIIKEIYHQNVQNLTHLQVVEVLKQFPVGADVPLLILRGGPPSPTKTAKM

[20] = target: GST-KIAA1634 PDZ domain 4 (Homo sapiens (Human)), Q5TCQ9; assay: G' assay; note: key of the grades not given here
[21] = target: T13, GST-NeDLG PDZ domains 1, 2, Q92796; assay: G' assay; note: key of the grades not given here
T13 chain: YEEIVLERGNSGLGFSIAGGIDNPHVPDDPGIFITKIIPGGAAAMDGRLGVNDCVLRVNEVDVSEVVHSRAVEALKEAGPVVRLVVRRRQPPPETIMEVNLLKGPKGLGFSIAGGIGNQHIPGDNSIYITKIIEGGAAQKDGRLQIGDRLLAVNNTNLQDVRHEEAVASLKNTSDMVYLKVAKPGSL

[22] = target: T14, GST-Outer Membrane PDZ domain 1 (Homo sapiens (Human)), P57105; assay: G' assay; note: key of the grades not given here
T14 chain: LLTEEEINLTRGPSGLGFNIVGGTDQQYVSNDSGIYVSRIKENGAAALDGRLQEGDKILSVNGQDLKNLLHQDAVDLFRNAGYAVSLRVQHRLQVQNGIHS

[23] = target: T15, GST-PTPL1 PDZ domain 2 (Homo sapiens (Human)), Q12923; assay: G' assay; note: key of the grades not given here
T15 chain: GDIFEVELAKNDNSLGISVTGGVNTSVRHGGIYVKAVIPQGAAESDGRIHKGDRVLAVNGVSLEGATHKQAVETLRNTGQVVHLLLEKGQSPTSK

[24] = target: T16, GST-PTPL1 PDZ domain 4 (Homo sapiens (Human)), Q12923; assay: G' assay; note: key of the grades not given here
T16 chain: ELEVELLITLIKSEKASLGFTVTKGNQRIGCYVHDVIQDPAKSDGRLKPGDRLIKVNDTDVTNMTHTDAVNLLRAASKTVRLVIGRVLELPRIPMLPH

[25] = target: GST-DLG1 PDZ domains 1, 2 (Homo sapiens), Q12959; assay: G assay titration, PDZ 0.3 ug/ml
[26] = target: T17, GST-TIP-1 (Example 3) (human), O14907; assay: G assay titration, PDZ 0.3 ug/ml
T17 chain: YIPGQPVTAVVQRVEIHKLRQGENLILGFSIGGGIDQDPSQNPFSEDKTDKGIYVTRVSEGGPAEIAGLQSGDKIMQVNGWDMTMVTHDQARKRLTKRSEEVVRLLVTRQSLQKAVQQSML

[27] = target: T18, GST-GRIP 1 PDZ domain 7 (Homo sapiens (Human)), Q9Y3R0; assay: G' assay; note: key of the grades not given here
T18 chain: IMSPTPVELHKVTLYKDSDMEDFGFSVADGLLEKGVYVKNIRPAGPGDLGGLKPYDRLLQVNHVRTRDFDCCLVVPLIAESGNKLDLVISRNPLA

[28] = target: T19, GST-KIAA0382 PDZ domain 1 (Canis lupus familiaris (Dog) (Canis familiaris)), A0A8I3; assay: G' assay; note: key of the grades not given here
T19 chain: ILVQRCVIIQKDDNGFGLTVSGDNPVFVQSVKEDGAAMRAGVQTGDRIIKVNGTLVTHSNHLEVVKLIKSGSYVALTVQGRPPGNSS

[29] = target: T20, GST-KIAA1526 PDZ domain 1 (Homo sapiens (Human)), Q9P202; assay: G' assay; note: key of the grades not given here
T20 chain: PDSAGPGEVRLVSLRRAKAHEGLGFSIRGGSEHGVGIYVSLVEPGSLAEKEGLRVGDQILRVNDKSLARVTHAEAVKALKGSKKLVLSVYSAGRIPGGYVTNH

[30] = target: T21, GST-KIAA1719 PDZ domain 6 (Homo sapiens (Human)), Q9C0E4; assay: G' assay; note: key of the grades not given here
T21 chain: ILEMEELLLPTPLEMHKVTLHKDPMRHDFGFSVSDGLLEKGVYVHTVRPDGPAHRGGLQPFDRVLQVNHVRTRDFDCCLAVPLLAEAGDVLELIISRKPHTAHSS

[31] = target: GST-KIAA807 [GST: P08515]; assay: G' assay; note: key of the grades not given here
[32] = target: T22, GST-MINT1 PDZ domain 2 (Mus musculus (Mouse)), B2RUJ5; assay: G' assay; note: key of the grades not given here
T22 chain: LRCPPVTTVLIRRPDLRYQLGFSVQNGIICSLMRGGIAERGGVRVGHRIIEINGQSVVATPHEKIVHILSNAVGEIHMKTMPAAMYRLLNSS

[33] = target: T23, GST-MINT1 PDZ domains 1, 2, Q02410; assay: G' assay; note: key of the grades not given here
T23 chain: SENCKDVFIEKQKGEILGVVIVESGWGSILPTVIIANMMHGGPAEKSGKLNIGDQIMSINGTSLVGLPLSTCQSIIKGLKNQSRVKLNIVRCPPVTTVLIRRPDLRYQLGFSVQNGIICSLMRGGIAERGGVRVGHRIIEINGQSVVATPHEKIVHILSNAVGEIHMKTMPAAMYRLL

[34] = target: T24, GST-Shank 1 PDZ domain 1 (Homo sapiens (Human)), Q9UPX8; assay: G' assay; note: key of the grades not given here
T24 chain: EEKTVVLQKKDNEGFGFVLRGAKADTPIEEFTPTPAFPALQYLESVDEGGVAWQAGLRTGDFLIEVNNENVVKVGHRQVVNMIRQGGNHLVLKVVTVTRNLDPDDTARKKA

Sequence of GST-KIAA1634 PDZ domain 1 (Homo sapiens (Human)), Q5TCQ9 (Q5TCQ9 401-502): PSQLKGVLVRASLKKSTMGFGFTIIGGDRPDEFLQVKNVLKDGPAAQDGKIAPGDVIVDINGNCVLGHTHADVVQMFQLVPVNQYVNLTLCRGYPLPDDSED
Sequence of GST-PSD95 PDZ domains 1, 2, 3 (Homo sapiens), P78352 (P78352 62-395): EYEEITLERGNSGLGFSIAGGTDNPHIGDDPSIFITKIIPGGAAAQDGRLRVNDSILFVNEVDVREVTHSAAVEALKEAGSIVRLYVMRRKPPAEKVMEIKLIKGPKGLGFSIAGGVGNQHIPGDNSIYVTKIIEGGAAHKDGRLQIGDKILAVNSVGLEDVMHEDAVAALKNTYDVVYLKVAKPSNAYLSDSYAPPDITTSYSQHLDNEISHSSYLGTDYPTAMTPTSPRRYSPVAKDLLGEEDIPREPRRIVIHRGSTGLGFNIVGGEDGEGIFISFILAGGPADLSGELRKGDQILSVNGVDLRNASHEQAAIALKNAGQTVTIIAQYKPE
Sequence of GST-BAI-1 Associated Protein PDZ domain 6 (Homo sapiens (Human)), Q96QZ7 (Q96QZ7 1143-1233): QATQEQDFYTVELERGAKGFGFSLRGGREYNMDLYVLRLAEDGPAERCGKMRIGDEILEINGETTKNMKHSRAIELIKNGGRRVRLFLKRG
Sequence of GST-BAI-1 Associated Protein PDZ domain 5 (Homo sapiens (Human)), Q96QZ7 (Q96QZ7 988-1099): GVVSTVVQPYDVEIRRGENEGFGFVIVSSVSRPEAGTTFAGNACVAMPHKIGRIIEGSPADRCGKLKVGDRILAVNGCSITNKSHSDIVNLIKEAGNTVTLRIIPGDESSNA
Sequence of GST-KIAA1634 PDZ domain 5 (Homo sapiens (Human)), Q5TCQ9 (Q5TCQ9 other isoform, or with tags, fused parts or gaps): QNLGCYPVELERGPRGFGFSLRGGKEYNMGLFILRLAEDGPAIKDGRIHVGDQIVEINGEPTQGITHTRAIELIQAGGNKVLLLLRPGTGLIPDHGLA
Sequence of GST-KIAA1634 PDZ domain 4 (Homo sapiens (Human)), Q5TCQ9 (Q5TCQ9 844-945): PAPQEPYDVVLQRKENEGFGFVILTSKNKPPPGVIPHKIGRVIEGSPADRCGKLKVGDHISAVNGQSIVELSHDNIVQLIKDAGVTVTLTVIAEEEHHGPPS
Sequence of GST-BAI-1 Associated Protein PDZ domain 2 (Mus musculus (Mouse)), Q6RHR9 (Q6RHR9 455-558): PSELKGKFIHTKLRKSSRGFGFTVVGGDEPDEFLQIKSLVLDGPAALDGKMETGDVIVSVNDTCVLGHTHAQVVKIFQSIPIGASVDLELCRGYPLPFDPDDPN
Sequence of GST-KIAA807 [GST: P08515] (P08515 whole entry, the tested form may be a part): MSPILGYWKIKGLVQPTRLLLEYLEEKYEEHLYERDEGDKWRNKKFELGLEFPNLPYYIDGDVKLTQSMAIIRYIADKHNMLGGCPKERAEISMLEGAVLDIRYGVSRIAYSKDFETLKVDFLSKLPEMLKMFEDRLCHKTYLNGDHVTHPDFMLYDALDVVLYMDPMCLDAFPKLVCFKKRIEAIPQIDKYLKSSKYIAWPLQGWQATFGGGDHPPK

Binder: ARHRVTSYTSSSVNVSSNL (modifications not checked) [IL-8RA]
- Classification [1]: 1 A450 class
- Classification [2]: 1 A450 class
- Classification [3]: 1 A450 class
- Classification [4]: 1 A450 class
- Classification [5]: 1 A450 class
- Classification [6]: 1 A450 class
- Classification [7]: 1 A450 class
- Classification [8]: 1 A450 class
- Classification [9]: 1 A450 class
- Classification [10]: 1 A450 class
- Classification [11]: 1 A450 class
- Classification [12]: 1 A450 class

Binder: KDITSDSENSNFRNEIQSLV (modifications not checked) [CD95]
- Classification [13]: 1 A450 class
- Classification [14]: 3 A450 class
- Classification [15]: 1 A450 class
- Classification [16]: 2 A450 class
- Classification [17]: 1 A450 class
- Classification [18]: 1 A450 class
- Classification [5]: 1 A450 class
- Classification [19]: 1 A450 class
- Classification [20]: 1 A450 class
- Classification [21]: 1 A450 class
- Classification [22]: 1 A450 class
- Classification [9]: 1 A450 class
- Classification [23]: 3 A450 class
- Classification [24]: 1 A450 class
- Kd [25]: 15 µM and 20 µM
- maximum OD (450 nm) [25]: 2.6 OD and 2.1 OD
- Kd [26]: 20 µM and 25 µM
- maximum OD (450 nm) [26]: 2.6 OD and 3.5 OD

Binder: LNETTETQRTLLNGDLQTSI (modifications not checked) [SSTR2 (somatostatin recepor 2)]
- Classification [27]: 1 A450 class
- Classification [28]: 1 A450 class
- Classification [4]: 2 A450 class
- Classification [29]: 1 A450 class
- Classification [30]: 1 A450 class
- Classification [31]: 2 A450 class
- Classification [32]: 1 A450 class
- Classification [33]: 1 A450 class
- Classification [34]: 1 A450 class

From patent US20050282743A1, “Molecular interactions in cells” (Arbor Vita Corporation, priority 2001, published 2005)
